From the supplement of paper PMC10724198
± gives the standard deviation of the averaged measurements.

These sequences were tested on Saccharomyces cerevisiae (assay: protein stability index of tFT-peptide fusion (C-terminal peptide) (PSI (0-1 scale)); higher = more stable (slower turnover)). Settings: genetic background: wild type; temperature: 30 C.
Experimental: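 Multiplexed protein stability (MPS) profiling in S. cerevisiae. Random 12-aa peptides (tFT-X12 library) are fused to the C-terminus of a sfGFP-mCherry tandem fluorescent timer, after mCherry and a GGGS linker. Cells are FACS-sorted into 8 mCherry/sfGFP bins and deep-sequenced. The protein stability index (PSI) is the read-weighted bin average, scaled from 0 (unstable) to 1 (stable). Only peptides with >10 reads are reported; cells were grown at 30 °C in SC-His with glucose.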
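Note: PSI is a weighted mean of sequencing reads over stability bins, variants kept only with over 10 reads, mCherry proximal and sfGFP distal, peptide attached via GGGS linker.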

In order of falling protein stability index:
1. GCGSWAWWCGRG  0.894 ± 0.08
2. FPWPDLPSLLPQ  0.8 ± 0.14
3. FSVGGLVDGRLW  0.79 ± 0.026
4. GCCCVMNQLRRR  0.777 ± 0.088
5. GASGWGGGGRGR  0.767 ± 0.14
6. FSVPPLPLPPRL  0.757 ± 0.095
7. GDRYFGTPAPSH  0.757 ± 0.021
8. GCGGGGGAWKGV  0.751 ± 0.056
9. GCLPSGTPAWFG  0.751 ± 0.052
10. GCVSAVSKCFFL  0.751 ± 0.1
11. FPPLPPPPPPLN  0.743 ± 0.065
12. GCGMCDPRCEHY  0.743 ± 0.083
13. FRAAGFLAGRYR  0.738 ± 0.039
14. FQMLPLGHQFPQ  0.736 ± 0.0087
15. FPPYHTSSGFDA  0.733 ± 0.066
16. FTSGNSWLAVFL  0.731 ± 0.027
17. FPPPPFFFIPLP  0.724 ± 0.048
18. FVWAGVGCWSEA  0.723 ± 0.023
19. FSPHTPPRRLPL  0.721 ± 0.066
20. FPTFSPRPHPLS  0.72 ± 0.0098
21. GDLVRNARSLII  0.72 ± 0.014
22. FSVSSSLSSFRA  0.717 ± 0.03
23. GAVVGGRCFCRR  0.715 ± 0.012
24. FSLPRHFRLYRR  0.713 ± 0.036
25. GCMRCTYKGKVK  0.713 ± 0.059
26. GAGSRRRNWGGW  0.711 ± 0.0081
27. GAVRAVAGGGAR  0.711 ± 0.067
28. GEFSINDGSGWT  0.7106 ± 0.0045
29. FRDEGYCFADLV  0.71 ± 0.094
30. FRFTSSPVFSWL  0.708 ± 0.014
31. FSGLSPPRPEFV  0.708 ± 0.0089
32. GEDADLVPILLG  0.707 ± 0.044
33. FWERWDLFCGLC  0.702 ± 0.1
34. GAGGSAGARSAE  0.702 ± 0.03
35. FSGGGRGLVGEV  0.7 ± 0.039
36. FVLLGVRGGAGW  0.698 ± 0.021
37. GAGRVRAPGRWP  0.6965 ± 0.0035
38. GCELVISCAHPV  0.695 ± 0.063
39. GCARLPALCCMF  0.694 ± 0.039
40. FSIRALGSLGVF  0.693 ± 0.027
41. FRLGTMYDILPL  0.69 ± 0.023
42. GCLHVVGGVCLG  0.69 ± 0.048
43. GATPRTAGRRPG  0.688 ± 0.038
44. FSGLFAFGRVVV  0.687 ± 0.056
45. FSSLLLMEVFLP  0.686 ± 0.011
46. FSASLLWFKEFW  0.685 ± 0.024
47. FPSLPSPSPSSH  0.684 ± 0.031
48. GEGRRQIKEEHV  0.6842 ± 0.0042
49. GASGGNRTGRRS  0.681 ± 0.022
50. FRSHGHLSQNSY  0.679 ± 0.044
51. FSPLTFLLSFPL  0.679 ± 0.019
52. FVWSGVGGSGVG  0.679 ± 0.028
53. FSASLPLSPSPA  0.6784 ± 0.002
54. GCGFRGVYSCWV  0.678 ± 0.078
55. FPPRPPPSPSAH  0.675 ± 0.027
56. GAVCRRVWVGSW  0.674 ± 0.0089
57. FRLPPRPPLTIP  0.6726 ± 0.0062
58. GCSVSRIRSAYV  0.672 ± 0.0089
59. GCFVGCDHWGVV  0.67 ± 0.028
60. GDYETPSTRSPM  0.67 ± 0.023
61. FPTSPPLIALLD  0.6692 ± 0.0029
62. GDIILSFFNFSK  0.666 ± 0.024
63. FYLMSDTNLPAL  0.664 ± 0.021
64. GEAVGRWSECRS  0.664 ± 0.0091
65. FVVGGGALGCYA  0.661 ± 0.019
66. GAGRGGGRGRRW  0.661 ± 0.031
67. FSPSPPPPPFPL  0.659 ± 0.024
68. GALVEGVFGHVR  0.658 ± 0.0066
69. GAILQVEAITHN  0.657 ± 0.068
70. GACSIVFYKVKR  0.653 ± 0.048
71. FVFSGLSGDFRG  0.649 ± 0.054
72. GAPPPAFPISSP  0.648 ± 0.05
73. GARRGVSERSPA  0.647 ± 0.041
74. GCFRGLYVVRGG  0.647 ± 0.039
75. FSLLPFFRHIFL  0.637 ± 0.025
76. GCGVGVGASVGR  0.636 ± 0.025
77. GCGEGNVRPCEL  0.6347 ± 0.0011
78. FRFLFSPSRPPF  0.633 ± 0.05
79. GEGAWNRKKPGD  0.632 ± 0.067
80. GCVGGWLGEGIG  0.627 ± 0.035
81. FPVSLSSVRMFV  0.6254 ± 0.0032
82. GARHTALCCPMG  0.623 ± 0.041
83. FVRWCFGRRVLG  0.619 ± 0.0027
84. GAAGGRGRGTAW  0.619 ± 0.15
85. GAGSGTRQPKPR  0.617 ± 0.0076
86. FPPTGPPYFPPT  0.615 ± 0.062
87. FYSRSVTLEVLH  0.605 ± 0.023
88. FRLQSLFPYVVK  0.604 ± 0.047
89. FYWFPYYFSHLH  0.602 ± 0.048
90. FWSCCCTLLFCV  0.5974 ± 0.002
91. FVFSIPPPPRPL  0.59 ± 0.15
92. FSLPSLLPDPPS  0.579 ± 0.011
93. FPPLFPLSTFLL  0.56 ± 0.04
94. FVVSSLYSYSYR  0.56 ± 0.015
95. GAQVGVRFLFSI  0.55 ± 0.011
96. FRLGIKFYTLAV  0.514 ± 0.01
97. GDARLAIWSLVT  0.512 ± 0.0098
98. FVLARLTYSILI  0.482 ± 0.047
